Test results as given in US20210261654A1 (BEIJING BEYOND BIOTECHNOLOGY, published 2021).

Target: T1, Recombinant human TNF-α (Sino Biological Inc., catalog number: 10602-HNAE) (human, UniProt P01375 77-233)
T1 construct: Bought protein; also called recombinant human TNF-α protein
Experiment: SPR (Biacore T100), BY19.4 captured by anti-IgG on CM5 chip

T1 sequence (P01375 77-233 limits assumed): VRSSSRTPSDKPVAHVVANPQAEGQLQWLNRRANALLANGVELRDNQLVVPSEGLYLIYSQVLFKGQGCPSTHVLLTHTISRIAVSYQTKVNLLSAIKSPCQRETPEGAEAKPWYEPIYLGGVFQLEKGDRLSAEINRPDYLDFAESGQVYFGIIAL

B1: anti-IL-17A antibody BY19.4 (antibody, human IgG4 S228P, kappa, V domains shown)
VH: QVQLVQSGAEVKKPGSSVKVSCKASGYSFTDYHIHWVRQAPGQGLEWMGVINPMYGTTDYNQRFKGRVTITADESTSTAYMELSSLRSEDTAVYYCARYDYFTGTGVYWGQGTLVTVSS
VL: DIVMTQTPLSLSVTPGQPASISCRSSRSLVHSRGNTYLHWYLQKPGQSPQLLIYKVSNRFIGVPDRFSGSGSGTDFTLKISRVEAEDVGVYYCSQSTHLPFTFGQGTKVEIKR
notes: also called control antibody BY19.4; BY19.4 (ixekizumab)
B1: no binding (tested: 7 nM to 600 nM tested).
